From PMC10146638 (Viruses, 2023)
No end group written: not given here.

Columns and labels:
[1] = molecular target: knob domain of the FAdV-4 Fiber2 protein (Fowl aviadenovirus 4, UniProt A0A1B1SKZ0); assay: Surface plasmon resonance assay (Biacore X100, CM5 chip); format: binding, fowl adenovirus serotype 4 (FAdV-4)
[2] = molecular target: knob domain of the FAdV-4 Fiber2 protein (amino acids 279–479) (fowl adenovirus serotype 4 (FAdV-4)); assay: AUC
[3] = molecular target: knob domain of the FAdV-4 Fiber2 protein (amino acids 279–479) (fowl adenovirus serotype 4 (FAdV-4)); assay: SEC; Superdex200 Increase 10/300 GL; protein eluted at 14.78 mL
[4] = molecular target: knob domain of the FAdV-4 Fiber2 protein (amino acids 279–479) (fowl adenovirus serotype 4 (FAdV-4)); assay: SDS-PAGE without boiling
[5] = molecular target: knob domain of the FAdV-4 Fiber2 protein (amino acids 279–479) (fowl adenovirus serotype 4 (FAdV-4)); assay: crystal structure
LMH cells = conditions: 0-200 μM, 24, 48 and 72 h incubation, vs untreated group
[6] = molecular target: knob domain of the FAdV-4 Fiber2 protein (amino acids 279–479) (fowl adenovirus serotype 4 (FAdV-4)); assay: SPR

Row | Molecule | Kd [1] [µM] | Kd [6] [µM] | further results
1 | QWKIEK [Peptide P5, QWKIEK] | 1.2 |  | 
2 | MQKHCG [Peptide P27, MQKHCG] | 0.572 |  | 
3 | knob domain of the FAdV-4 Fiber2 protein (amino acids 279–479) (domain or fragment) |  |  | stoichiometry N [2]: 3; stoichiometry N [3]: 3; stoichiometry N [4]: 3; stoichiometry N [5]: 3
4 | QWKIHR [Peptide P6, QWKIHR] | 2.78 |  | 
5 | QWKARV [Peptide P14, QWKARV] | 24 |  | 
6 | MQKHEW [Peptide P25, MQKHEW] | 1.37 |  | 
7 | QWKKHI [Peptide P1, QWKKHI] | 6.16 |  | 
8 | MQKKFI [Peptide P30, MQKKFI] | 0.907 |  | 
9 | WWHEKE [Peptide P15, WWHEKE] |  |  | cytotoxic effect (CCK-8) (LMH cells): no cytotoxic effect
10 | QWKNCK [Peptide P10, QWKNCK] | 1.02 |  | 
11 | MQKHCG [peptide P27] |  | 0.573 | 
12 | QWKIHR [peptide P6] |  | 2.78 | 
13 | MQKKFI [peptide P30] |  | 0.907 | 
14 | QWKARV [peptide P14] |  | 24 | 
15 | QWKNCK [peptide P10] |  | 1.02 | 
16 | QWKKHI [peptide P1] |  | 6.16 | 
17 | MQKHEW [peptide P25] |  | 1.37 | 
18 | QWKIEK [peptide P5] |  | 1.2 | 
19 | WWHEKE [peptide number 15 (P15; WWHEKE)] |  | 1.44 | 
